The text below walks through data of patent publication US20190389958A1 (MSM PROTEIN TECHNOLOGIES, published 2019).

Test [1] has as its target T1, human CXCR4 (human, UniProt P61073 1-352). Description: cell-based or functional assay.
Test [2] has as its target T1, human CXCR4. Description: cell-based or functional assay. The source holds these as a separate data set.
Test [3] deals with T1, human CXCR4. As to the kind of experiment: flow cytometry, IgG 10 µg/mL, CXCR4-expressing Ramos (RA1) cells. On the procedure:
Binding of test IgGs to CXCR4-expressing human lymphoma cells (Ramos; RA1, ATCC® CRL-1596™) was measured by fluorescent flow cytometry-based assay. Tumor cell staining was conducted as follows: human Fcγ receptors of RA1 cells were saturated by incubation at 4° C. for 30 minutes in PBS containing 2% human serum and 0.5 mM EDTA. Cells were then incubated at 4° C. for one hour with test IgGs or a human isotypic IgG1 kappa control (Coger Sarl, Paris, France) (both antibody types at 10 μg/mL). The cells were washed with PBS and further incubated for one hour at 4° C. with a goat F(ab′)2 fragment anti-human IgG (H+L)-PE (Beckman Coulter). The cells were washed twice with PBS and fixed with 0.5% formaldehyde in PBS for analysis by flow cytometry. The data were acquired using an eleven-color flow cytometer (LSRII, BD Biosciences), and the analyses were performed with the FlowJo flow cytometry analysis software (Tree Star Inc., Ashland, Oreg.). The living cells were selected using the side scatter (SSC) and the forward scatter (FSC); 10,000 events were acquired for each analysis. MFI values were recorded using the PE channel.
(Flow cytometry measures light scatter and fluorescence of single cells or particles in a stream.)

The target of test [4] is T1, human CXCR4. As to the kind of experiment: flow cytometry on Cf2-Th cells transfected with human CXCR4, IgG1 format. Here is the method: A typical protocol for the fluorescent flow cytometry-based assay was as follows. Ten microliter of a purified test IgG solution or buffer as a control were added to 10 microliter of a suspension containing approximately 30,000 Cf2-Th cells transfected to express human CXCR4. After incubation on ice for 40 min, cells were washed with FACS buffer (phosphate-buffered saline (PBS), pH7.4; 2% fetal calf serum, 0.1% sodium azide) to remove unbound antibodies. Ten microliter of a solution of phycoerythrin (PE)-conjugated mouse anti-human Fc monoclonal antibody (1/20 dilution; catalog number 12-4998-82, eBioscience Inc., San Diego, Calif.) were then added to the cells, and, after a 30-min incubation on ice, cells were washed twice and then formalin-fixed (FIX buffer: PBS, pH7.4; 0.5% formaldehyde). Fixed samples were analysed by fluorescent flow cytometry using a Guava-PCA96 instrument (EMD Millipore Chemicals, Merck KGaA, Darmstadt, Germany).

T1 sequence (P61073 whole entry): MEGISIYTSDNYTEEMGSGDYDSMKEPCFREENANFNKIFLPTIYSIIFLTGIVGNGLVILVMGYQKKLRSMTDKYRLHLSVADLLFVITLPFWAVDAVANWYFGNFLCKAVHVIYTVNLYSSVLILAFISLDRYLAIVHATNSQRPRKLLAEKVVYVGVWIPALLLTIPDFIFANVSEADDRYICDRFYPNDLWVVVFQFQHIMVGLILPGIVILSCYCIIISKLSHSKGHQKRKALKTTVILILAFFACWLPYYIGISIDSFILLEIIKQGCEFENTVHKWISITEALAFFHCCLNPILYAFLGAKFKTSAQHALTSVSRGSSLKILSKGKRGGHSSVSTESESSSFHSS

B1: V62.1-R108H-m43-m38 (antibody, human IgG1, V domains shown)
VH: EVQLLESGGGLVQPGGSLRLSCAASGFTFSSYAMSWVRQAPGKGLEWVSAISGSGGGSTRYADSVKGRFTISRDNSKNTLYLQMNSLRAEDTAVYYCARQGKTRVYGYHWHGYGSTHALDYWGQGTLVTVSS
VL: EIVLTQSPGTLSLSPGERATLSCRASQSVSSSYLAWYQQKPGQAPRLLIYGASSRATGIPDRFSGSGSGTDFTLTISRLEPEDFAVYYCQQWSSDSVTFGQGTKVEIKR
notes: Tested as an IgG (human IgG1 format); also called V62.1-H-m43-m38; IgG1 62.1-R108H-m43-m38
For the molecule B1, in test [1], the “IC50 (nM), inhibition of SDF-1alpha-induced calcium flux” value was determined as 3.8 nM. Further, the “% Inhibition of SDF-1alpha-induced chemotaxis of U937 cells (IgG at 100 nM)” value in test [2] is 77%. The molecule also showed an MFI in test [3] of 488. For the same molecule, in test [4], the EC50 (usually the midpoint of the concentration-response curve) was less than 10 nM.
